Experimental findings from patent US7101851 (dated 2006) are described below.

The target of assay [1] is T1, alpha subunit of the human FcεRI receptor expressed on cells (human, UniProt P12319 26-257).
T1 construct: whole, on cells; on rat basophil RBL-48 cells in the histamine release assay; also called CHO FcεRI+ cells; cell surface expressed FcεRI
T1 sequence (looked up): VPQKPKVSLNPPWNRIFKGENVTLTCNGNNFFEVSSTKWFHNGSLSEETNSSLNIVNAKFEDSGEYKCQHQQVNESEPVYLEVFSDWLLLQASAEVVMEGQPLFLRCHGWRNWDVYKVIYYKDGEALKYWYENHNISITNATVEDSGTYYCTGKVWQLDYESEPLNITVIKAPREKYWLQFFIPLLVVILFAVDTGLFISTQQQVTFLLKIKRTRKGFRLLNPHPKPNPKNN
Nature of the assay: inhibition of 125I-IgE binding to CHO cells expressing FcεRI alpha; 7-10 days after dissolving, when the homodimer had formed. Here is the method:
(§1) To determine the ability of peptides to inhibit IgE binding to FcεRI, a cell-based binding assay was used with radiolabeled IgE. Chinese hamster ovary cells expressing the alpha subunit of the human FcεRI receptor were cultured overnight in Falcon 96 well microtiter plates at a concentration of 5 ×10^4 cells per well. The following day the cells were rinsed three times with PBS and then once with F12/DMEM. Peptide stocks were reconstituted in 100 mM Hepes buffered water, pH 7.2, at a concentration of 5 mg/mL. Working concentrations of the peptide were diluted in assay buffer (see below). 75 uL of a desired concentration of peptide was added to the top row of a separate 96 well microtiter plate and serially diluted 1:3 in 50 uL of the assay buffer (F12/DMEM, 1% BSA, 0.05% NaN_3 and 0.025 mM Hepes pH 7.2). Starting concentrations ranged from 50–500 uM. Next, 50 uL of the diluted peptide was transferred to the 96 microtiter well plate containing a monolayer of CHO FcεRI+ cells. […] Cells were
The size of each peptide was confirmed by mass spectrometry. […] This increase over time was not observed with the other peptides.

Assay [2] deals with T1, alpha subunit of the human FcεRI …. Nature of the assay: inhibition of 125I-IgE binding to CHO cells expressing FcεRI alpha; freshly dissolved peptide (monomer). The protocol: as §1, with “Cells were […]” for “Cells were”
Assay [3] deals with T2, extracellular domain of the alpha subunit of the human FcεRI (aa 1-176) (human, UniProt P12319 26-201).
T2 construct: range 1-176; also called soluble FcεRI; baculovirus-derived FcεRI
T2 sequence (looked up): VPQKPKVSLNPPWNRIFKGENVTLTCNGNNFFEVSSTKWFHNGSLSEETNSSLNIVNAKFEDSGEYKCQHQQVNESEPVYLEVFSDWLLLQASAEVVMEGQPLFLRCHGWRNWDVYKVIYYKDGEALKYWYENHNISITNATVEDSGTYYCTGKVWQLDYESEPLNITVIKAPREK
Nature of the assay: competitive phage ELISA on FcεRI (FIG. 1).

The target of assay [4] is T3, FcεRI-IgG (UniProt P12319 26-205).
T3 construct: extracellular domain; Produced from CHO cells (Genentech); also called FcεRI-Fc; bivalent fusion protein of the extracellular domain of FcεRI and the Fc domain of IgG; not shown: Fc domain of IgG
T3 sequence (looked up): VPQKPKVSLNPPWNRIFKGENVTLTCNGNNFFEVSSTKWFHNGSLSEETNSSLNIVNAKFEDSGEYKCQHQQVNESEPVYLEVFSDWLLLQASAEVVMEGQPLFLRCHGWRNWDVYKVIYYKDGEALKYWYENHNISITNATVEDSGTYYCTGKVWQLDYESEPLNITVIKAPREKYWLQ
Nature of the assay: competitive phage ELISA; reference of the C-terminal truncation series. The protocol:
(§2) This oligonucleotide was annealed with a g3 single stranded DNA phagemid template. The mutagenesis reaction was transformed into XL-1 Blue *E. coli* and plated on LB-carb+ agar plates. Individual colonies were propagated in 5 mL of 2YT broth, tetracycline, carbenicillin and VCSM13 helper phage (Stratagene). Single stranded DNA was isolated from the purified phage particles and sequenced to confirm the insertion of the phage peptide sequence. 25 mL preparations of g3 phage clones were propagated overnight and purified by PEG precipitation. After resuspension of the phage pellet in 1.0 mL of PBS, it was serially diluted 1/3 and incubated with immobilized FcεRI-IgG 2 ug/mL in a 96 well Maxisorp microtiter plate for 1 hour at room temperature. The wells were washed 10× with PBST then incubated with 100 uL of anti M13 phage HRP as described above. An OD(492) value corresponding to less than 50% binding was selected and the purified phage clones were diluted to yield this normalized level of signal. […] The mixture was then transferred to 96 well microtiter dishes containing immobilized FcεRI-IgG. After a 1-hour incubation period, the plates were washed 10 times, incubated with anti M13-HRP conjugated antibody and developed with OPD as described above.
(§3) In addition, stepwise N-terminal and C-terminal truncations of the peptide sequence were constructed. […]

Assay [5] has as its target T3, FcεRI-IgG. Nature of the assay: competitive phage ELISA: g3 peptide-phage on immobilized FcεRI-IgG, soluble FcεRI-IgG titrated. Here is the method:
as §2
In addition, stepwise N-terminal and C-terminal truncations of the peptide sequence were constructed. All constructs were made by designing oligonucleotides corresponding to the desired substitution or truncation, with an additional 18 bp of DNA overlapping the peptide or g3 phage DNA sequence. The phage clones were propagated overnight following infection in XL-1 Blue *E. coli*. Purified phage preparations were titered and assayed for binding to immobilized receptor. FcεRI-IgG competition assays were performed as described above.
On the technique in general: ELISA stands for enzyme-linked immunosorbent assay.

Assay [6] deals with T3, FcεRI-IgG. Nature of the assay: competitive phage ELISA; reference of the N-terminal truncation series. Here is the method:
as §2, §3

Assay [7] addresses T2, extracellular domain of the alpha …. Nature of the assay: competitive phage ELISA on FcεRI (FIG. 2). The protocol:
Phage ELISA assays were carried out as described (Lowman, 1998, supra), using Nunc Maxisorp™ plates coated with a 2 μg/mL solution of baculovirus-derived FcεRI. Peptide-phage were pre-incubated for 5–10 min with serial dilutions of receptor, then added to the receptor-coated plate. After incubation for 1 h at room temperature, the plates were washed and an anti-phage HRP-conjugated antibody (Pharmacia) was added. After further incubation for 20 min, plates were again washed and developed using the substrate OPD (Sigma). Optical density at 492 nm was read and plotted as a function of FcεRI concentration to determine an $IC50$ of inhibition by each peptide-phage variant.
These libraries were sorted for FcεRI binding as described above. […] The "linker region" (underlined) of the peptide was randomized in this library.

“And” between values parts separate entries of the source, which are not always exact repeats. Identical values can stand only once. Bridges are numbered along the chain shown (N, C = ends). Where no end group is shown, it is not given here.

B1: IGE037 (peptide)
peptide: ALCPAVCYV-NH2
modifications: disulfide 3-7 (inferred); also: reshuffles over 3-12 days into disulfide-linked homodimer, held to be active form
notes: Made as a cyclic monomer
In the case of B1, the half-inhibitory concentration (IC50) is 25 µM in assay [1] and roughly 300 µM in assay [2]. On to VQCPHFCYVGGKALCPDVCYV (not shown: M13 g3p display) [IGE122-phage VQCPHFCYVGGKALCPDVCYV], for which the binding result in assay [3] was “binds”.

B2: g3c.42 peptide-phage (peptide)
peptide: NLPRCTEGPWGWVCMAAD
modifications: not fully specified (bridges); cysteine pairing not given here
notes: Monovalent g3p phage display; not shown: fused to M13 gene-3 protein (g3p) on phage
B2: the “Relative (IC50) (fold weaker)” value with FcεRI-IgG [4] and with FcεRI-IgG [6] was 1 fold each time. The IC50 with FcεRI-IgG [5] is 5.6 nM and 3.1 nM. Consider IVCPRLCYELDYELCPDVCYV (not shown: M13 g3p display) [phage clone IVCPRLCYELDYELCPDVCYV from the IGE120-phage library (NBO895-619D)], for which, in assay [7], the “fold improved affinity over IGE120” value was roughly 2 fold.

For orientation: IC50 means the point on the concentration scale where inhibition reaches its midpoint. The low end stands for greater potency, the high end for weaker potency.
